± gives the uncertainty stated by the source.

This data set is described as follows: amyloid nucleation score (Sup35N fusion, yeast selection) (log enrichment); library NNK1; higher = more nucleation; inactive = no reads after selection. Put shortly: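 On medium lacking adenine and uracil, psi-negative yeast expressing peptides of 20 random codons fused to Sup35N were grown 7 days at 30°C after a 24-hour induction with 100 μM copper sulfate. Illumina sequencing of input and output plasmid inserts gave the reads, and sequences under 100 input reads were excluded. The nucleation score is the DiMSum log enrichment of output over input reads, centred on the mode score of non-aggregating sequences.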
For RSMYVSRRPIVPPLYIGFWE, the amyloid nucleation score turned out to be 0.166 ± 0.48.
To GFRFW belongs 2.96 ± 0.11; to FSNNLHLWAITSVLNIQTSN, 6.245 ± 0.053; to RVQFRKSTVSISYQNGFCTQ, 2.73 ± 0.086.
To SVMFQECFVNEFIGVHRCRD belongs 6.324 ± 0.047; to LHPVLALPAFNVDRNSMPC, -0.335 ± 0.52.
To FIAIDLS belongs 1.31 ± 0.45.
For DSLFTIYMNSISFR, the amyloid nucleation score is 5.83 ± 0.093.
To MGLSNSDADGRTLRNEHVKS belongs -1.35 ± 2.1; to QWAFYVNYLTSRDYFNIFTR, 1.05 ± 0.16.
To FLIFIRFNGHCLSIGWFTLH belongs 0.303 ± 1; to YHVRVKYFPWNGTNVTVLDS, -0.73 ± 0.32.
To AIQCSTARNDVECKLFTYVL belongs 0.086 ± 0.71; to ESLFLVCRPRRQVFIVSCRS, -0.716 ± 0.38; to LFRFNWLDSNPV, “inactive”.
On to GGIRRHTHGI, for which the amyloid nucleation score was -0.746 ± 1.4.
NLVRLILRCSDRAKRFLRAL came in with an amyloid nucleation score of -0.218 ± 0.36.
The substance RRGFVAHLFLVLTVVCNLNS had an amyloid nucleation score of 7.2 ± 0.071.
To SKKIVGIFYKVCSRRLFMVC belongs 0.456 ± 0.6; to VEVLWVEDGSQF, -0.559 ± 0.31; to YQDFYMLSRLAKLGG, 0.36 ± 0.61.
To NLLTWRD belongs 0.743 ± 0.64; to SYDISYDFWVNLVAGRLTSM, 1.24 ± 0.6.
To VISIGIGMDTTTRVGQMYMK belongs -0.115 ± 1.4; to GDHFPEDGYSLEIADR, -0.737 ± 1.2; to FRFMVLGLVSLGIGV, -0.59 ± 0.62.
The substance VSESDKEGLEK yielded an amyloid nucleation score of -1.17 ± 1.6.
To HSGQYCSAHPGFVK belongs -0.49 ± 0.5; to THQARVLNNVRALRSTFALL, 2.5 ± 0.12.
To HLYTVTHGSLNDKTGRP belongs 0.31 ± 0.97; to EPSLERRRRPSEMVGAKGWI, -0.374 ± 1.1; to GHSLHLWVTTKS, 0.561 ± 0.66.
As for YVPGTNILLIIGEICQVPTD, the amyloid nucleation score was 2.18 ± 0.22.
To CRRNGGTLMAGE belongs 1.21 ± 0.76; to NDTSNPVTLCHFV, 0.408 ± 0.48; to QVTVRM, 0.987 ± 0.24.
SHTTILTSWRSYKKMKASNA yielded an amyloid nucleation score of 0.496 ± 0.43.
To KYFSSNSKYIYDQLIVPSRT belongs -0.42 ± 1.7; to VPPCEWHRRTYR, 0.176 ± 1.1.
To FVAASNYQAIPYCYRMIYVS belongs -0.102 ± 0.4; to YLYAACVVWLMLLPNME, -0.671 ± 1.2.
To RSDISASHRSVGLLNSHRTD belongs -0.58 ± 1.5; to TGIYYWNRKLGRYRLHVHVV, -0.15 ± 0.97; to EYSADTIGVIGLGTAPDERR, -0.239 ± 0.84.
On to IYACTYY, for which the amyloid nucleation score came out at 0.184 ± 0.45.
As for YYYYPNGDCEKK, the amyloid nucleation score was -0.657 ± 0.63.
The substance SDYMCTKSSIKLNTYIDVKD showed an amyloid nucleation score of -1.6 ± 2.1.
To QVHIERDVERPYMFLGTAWG belongs -0.285 ± 0.34.
To HTRNVKTLRVKHSIDVPFLP belongs 1.41 ± 0.74.
To NGITLLGAVAFTVFLLYPRT belongs -0.215 ± 0.41; to TRFNTSEDHSLDNIEA, -0.542 ± 0.93; to RHVAYRSLRFSGCTP, 0.416 ± 0.76.
Substance LHLVTYFVTYVLYSFSISAS showed an amyloid nucleation score of -0.268 ± 0.7.
To VCEISLN belongs 0.016 ± 1.2; to PCALGECRLVNSVISRGFGR, 0.38 ± 1.2; to LCIWYICRT, 3.2 ± 0.16.
To GYFYFRQIIQSDRPFIYNIP belongs -0.16 ± 0.38; to FFELYRVLCTNAFLWCKGYV, -0.423 ± 0.44.
To FGNSFRSQGVSFM belongs 0.414 ± 0.32.
RFNTEKRLALNNNMPLRWFS registered an amyloid nucleation score of -0.125 ± 1.7.
To RSLFRECEKIVDRHSMSNFH belongs 0.445 ± 0.4.
To HLGSNFKISAGAINVRLSHR belongs 4.76 ± 0.1; to SLGVDYDTGSVVYVAGCNCR, 0.009 ± 0.46; to SYVDRVLSSRSRWMKIVELN, 0.083 ± 0.44.
To YSEYPSLLGRSSGMIDNFKG belongs 0.597 ± 0.28.
With LFFMVLFNKSTEFERLFHIV, the amyloid nucleation score was -0.633 ± 0.56.
To TFQHCLRYWPNHSRLNSCRL belongs 0.155 ± 0.25; to DISRMMSISRLFFYNNVLFT, -0.524 ± 0.44.
To LHRSRFHDNTTSNGLLKGTV belongs -0.574 ± 0.6.
To FYHFALFGVCARVPSDLACV belongs “inactive”.
Turning to DMTWNKQHFYGCSISYRSGT, the amyloid nucleation score was found to be 5.99 ± 0.086.
To PHVFRFSFPTLILIGSFNFC belongs 3.14 ± 0.12.
To ISEVFD belongs -0.237 ± 0.24.
Consider VCVGFIGDVIRLERSANSVL, for which the amyloid nucleation score is -0.049 ± 0.3.
To HCIWKMLNLFSSLRLSIKLI belongs -2.16 ± 2.4; to YYEMIFSWVTPHSYRDTSYC, -0.733 ± 1.9.
To FRVLWDYCVSSTVRRVTSLG belongs “inactive”; to SFFLIIVQREKRVRTSGCL, 0.954 ± 0.8; to LQSAVRWWHFDSRLGEAKLM, 0.902 ± 0.69.
To MSIVCFCW belongs 8.155 ± 0.047; to IYTRFFNTV, -0.222 ± 0.36; to SDELWLLQFPVLNNKLWEK, 0.726 ± 1.1.
Turning to LDIINLGGRHFTRSPVLYRN, the amyloid nucleation score was -0.297 ± 0.49.
As to IGGCWLLQMN, the amyloid nucleation score stood at 0.369 ± 0.44.
To VAEAFTIGWGGNESSSVRSS belongs -0.348 ± 0.52.
To APKITGQTSNVGTRA belongs -0.028 ± 0.52; to YDIRL, -0.376 ± 0.65; to VGFRGVLQIPGLSFPEALVR, 0.024 ± 0.46.
To PVVDKLSDVHVM belongs -0.262 ± 0.31; to IWPLGNAIK, 1.93 ± 0.51.
In turn, GPFHRWNL had an amyloid nucleation score of -0.129 ± 1.6.
To YLVRVMFWLLGRCEA belongs “inactive”; to STDVFYLV, -0.669 ± 0.39; to YLIMGNVFNVAVVGGIGCVE, 0.345 ± 0.29.
To GFAFSNVCIVAYYRYFSSRR belongs 3.26 ± 0.15; to FEGILIKFCFGAWESDKVTM, 1.36 ± 0.59.
The substance AMFAMLNDRGRLGACYLVGK displayed an amyloid nucleation score of 1.55 ± 0.78.
To EKGRFVRLDERLYYLCVVWS belongs 0.163 ± 0.66; to CNELI, “inactive”; to EHSSVCLESSQYVRMVVIKQ, 0.531 ± 0.66.
To SMLLSRKHCGGVNEKHFM belongs -0.311 ± 0.35; to ISMNF, 0.67 ± 1.1.
To IIWMSRRSSSLNEKGLKFNY belongs -0.548 ± 0.29.
For FSVRHLSVSVLRMGTHLLDA, the amyloid nucleation score was -0.746 ± 0.61.
To NLFVKFLNSRRCINFMTMFD belongs -0.01 ± 0.77; to CGTIKLSPFWWSVEDHACWM, 0.828 ± 0.57.
To NLWGSFTCYLFVIGNHWFGI belongs 6.96 ± 0.084.
With LWSYRDFRQVSTELN, the amyloid nucleation score was -1.15 ± 2.7.
To PSVTVYIYNLSSIFYGIRDL belongs 6.71 ± 0.075; to ESSNLYYYRTSHKKKTTLCS, -0.639 ± 1.7; to IFRFSNFR, 5.822 ± 0.054.
To MENISLINGLETMYPIDRLT belongs -2.15 ± 2.4.
FTRKLPSFVLL yielded an amyloid nucleation score of 0.392 ± 0.61.
To NVRGSWVIMCYFTYVWMLGR belongs 0.017 ± 0.35; to VIIRRWHIVFCSRFMFPCNF, 0.297 ± 0.64.
To GMVFF belongs 0.643 ± 0.58; to VPIMYNFGINDVGSVCDCTD, 7.259 ± 0.053.
As for VGLISALANTGMFRTSNCVF, the amyloid nucleation score is 0.426 ± 0.5.
To DSSSYICSLSSPYSWSISFF belongs 7.366 ± 0.07; to YLNACGSSVRTKVRCSRVIL, -0.209 ± 0.91; to AGVCRNNSPLIHTFNF, 0.728 ± 0.64.
To GRARVSIRSWSRSWSVGRVL belongs 0.309 ± 0.63; to QGSVSRCISEALTVRCYRTG, “inactive”; to KPWLVHMHGSSYNGRADAEV, 0.811 ± 0.61.
To LDVSTRQRLVGVD belongs -0.2 ± 0.61; to MLEESVLHSLLICGANSVFK, 0.195 ± 1.1.
For the substance FRNDGYLNSYMSRRVIIPSD, the amyloid nucleation score was -0.194 ± 0.23.
To HRPDIHFVVPVTAP belongs -0.619 ± 0.4; to VSTGWKRLKFQLVIGCFS, 0.502 ± 0.53.
To ELMCNTQSLSAETCFGKKSY belongs 0.97 ± 0.63.
To SGDWTYFIIMRWDLPFIICR belongs 0.265 ± 0.22; to RMPNGTWSIGRHLVD, 0.384 ± 0.79; to NGVPWG, -0.21 ± 0.95.
On to CISIACSAD, for which the amyloid nucleation score worked out at 0.342 ± 0.73.
To FVEVMLIVNFTGLGVV belongs 0.576 ± 0.16; to VVVRLRFRNSIPSILSQR, -0.304 ± 0.71.
To LAMPLFPLQDGSW belongs “inactive”; to LPSDSFAVI, 0.483 ± 0.81; to YVSLLYLLWLI, -0.326 ± 0.32.
In the case of TGFLR, the amyloid nucleation score stood at 0.12 ± 0.4.
